From patent publication US10584243B2, “Antithrombotic compounds, methods and uses thereof” (The University of British Columbia, priority 2014, dated 2020)

Assays:
[1] = tested on: platelets in human platelet-rich plasma; assay: Platelet activation by flow cytometry (CD62P); format: cell-based; conditions: highest dose
Method: Blood from healthy consented donors was either collected into 3.8% sodium citrate tube with a blood/anticoagulant ratio of 9:1 or serum tube at Centre for Blood Research, University of British Columbia. The protocol was approved by the University of British Columbia clinical ethical committee and written consent was obtained from each individual donor. Platelet-rich plasma (PRP) was prepared by centrifuging citrated whole blood samples at 150×g for 10 min in an Allegra X-22R™ Centrifuge (Beckman Coulter™, Canada). Serum was prepared by centrifuging the blood collected in serum tube at 1200×g for 30 min one hour after blood collection.
The level of platelet activation after exposure to polyP inhibitors was quantified by flow cytometry. Ninety microliters of platelet rich plasma (PRP) was incubated at 37° C. with 10 μL of either 10 mg/mL or 20 mg/mL of UHRA, protamine or PEI stock solution (final polymer concentration 1 mg/mL and 2 mg/mL respectively) in PBS. […] The level of platelet activation was analyzed in a BD FACSCanto II flow cytometer (Becton Dickinson™) by gating platelets specific events based on their forward scattering profile (size of individual platelet). Activation of platelets was expressed as the percentage of platelet activation marker CD62-PE fluorescence detected in the 10,000 total events counted. […]

[2] = mice; intravenous injection; for UHRAs maximum injected dose, maximum tolerated dose not reached; cited from earlier work
human fibrinogen = target: T1, human fibrinogen (Homo sapiens, UniProt P02671+P02675+P02679); assay: Fibrin clot turbidity and scanning electron microscopy; conditions: fibrin polymerization assay
T1 sequence (P02671 20-644 isoform P02671-2 limits assumed): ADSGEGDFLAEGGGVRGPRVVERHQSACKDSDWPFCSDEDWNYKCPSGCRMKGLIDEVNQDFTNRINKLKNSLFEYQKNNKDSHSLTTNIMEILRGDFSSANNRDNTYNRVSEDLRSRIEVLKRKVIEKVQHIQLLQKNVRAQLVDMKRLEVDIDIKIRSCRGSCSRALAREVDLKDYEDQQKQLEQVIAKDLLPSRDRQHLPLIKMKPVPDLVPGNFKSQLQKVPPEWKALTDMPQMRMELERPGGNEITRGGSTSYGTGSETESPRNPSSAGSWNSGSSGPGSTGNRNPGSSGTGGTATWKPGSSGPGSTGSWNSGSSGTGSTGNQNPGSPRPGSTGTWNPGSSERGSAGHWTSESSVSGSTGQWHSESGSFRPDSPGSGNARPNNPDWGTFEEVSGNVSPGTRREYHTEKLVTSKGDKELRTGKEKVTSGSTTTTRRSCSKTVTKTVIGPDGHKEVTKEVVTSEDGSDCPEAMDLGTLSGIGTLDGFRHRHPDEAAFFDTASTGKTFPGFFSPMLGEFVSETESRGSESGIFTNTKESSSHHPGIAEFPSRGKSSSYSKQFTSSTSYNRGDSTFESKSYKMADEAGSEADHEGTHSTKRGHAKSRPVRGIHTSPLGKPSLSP
T1 sequence (P02675 45-491 limits assumed): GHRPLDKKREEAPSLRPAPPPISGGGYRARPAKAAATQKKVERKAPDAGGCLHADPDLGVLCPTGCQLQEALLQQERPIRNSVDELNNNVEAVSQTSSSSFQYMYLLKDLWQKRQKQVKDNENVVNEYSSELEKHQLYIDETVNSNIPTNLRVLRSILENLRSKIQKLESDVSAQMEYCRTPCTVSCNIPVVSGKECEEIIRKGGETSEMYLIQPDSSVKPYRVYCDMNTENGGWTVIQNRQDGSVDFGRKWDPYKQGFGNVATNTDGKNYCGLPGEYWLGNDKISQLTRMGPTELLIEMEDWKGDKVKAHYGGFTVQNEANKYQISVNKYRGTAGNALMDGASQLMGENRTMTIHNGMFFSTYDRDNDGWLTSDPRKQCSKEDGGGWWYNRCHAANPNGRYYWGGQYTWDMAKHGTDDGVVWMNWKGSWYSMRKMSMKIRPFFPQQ
T1 sequence (P02679 27-437 isoform P02679-2 limits assumed): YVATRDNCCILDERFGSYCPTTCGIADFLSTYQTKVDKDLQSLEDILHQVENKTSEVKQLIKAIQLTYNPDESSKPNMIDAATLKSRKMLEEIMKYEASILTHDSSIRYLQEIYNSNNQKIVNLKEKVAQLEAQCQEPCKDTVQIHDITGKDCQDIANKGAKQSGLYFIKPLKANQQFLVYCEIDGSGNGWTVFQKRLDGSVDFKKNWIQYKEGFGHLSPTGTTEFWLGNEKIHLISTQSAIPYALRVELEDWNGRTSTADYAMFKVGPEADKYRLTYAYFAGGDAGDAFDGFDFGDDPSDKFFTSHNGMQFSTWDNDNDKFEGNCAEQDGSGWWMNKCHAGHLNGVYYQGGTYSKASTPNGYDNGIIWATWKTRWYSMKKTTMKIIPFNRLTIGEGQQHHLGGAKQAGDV
Method: The morphology of clots formed in presence of UHRA and protamine was determined by scanning electron microscopy (SEM) analysis. All samples for SEM were randomly coded and blinded to the individual performing imaging and analysis to avoid bias. Fibrin clots were formed in sterile round-bottomed 5 mL polypropylene tubes (BD Falcon) by mixing purified human fibrinogen (200 μL, 3 mg/mL) in 20 mM HEPES (pH 7.4 and 150 mM NaCl) with 2.5 NIHU/mL thrombin and 3 mM CaCl2 and UHRA or protamine (in HEPES buffer) (0-500 μg/mL). All concentrations are final. Control clot was prepared in the absence of UHRA or protamine. After incubating the solution for 1 hour at 37° C., clots were immediately fixed using karnovsky fixative (2.5% glutaraldehyde and 4% formaldehyde) and repeatedly washed with 0.1 M sodium cacodylate buffer (pH=7.4) followed by post-fixation with 1% v/v osmium tetroxide. The samples were washed three times with distilled water and then dehydrated with gradient ethanol series (20-95% v/v). […] Fiber diameters of all clots were measured with image analysis software package ImageJ™ (National Institutes of Health, USA). Fiber diameter (n=30) from 8 separate areas of each clot was measured and used for calculating the average fiber size formed.

Substance: protamine sulfate
- platelet activation (CD62P expression) [1]: about 30%
- dose tolerated (up to) [2]: up to 20 mg/kg
- final turbidity (A405) of fibrin clots (human fibrinogen): elevated final turbidity
